# Experimental data from patent US7297837 (Johns Hopkins, dated 2007).
# T1: full-length hMLH1 protein (human, UniProt P40692 1-756, 35S-labelled methionine where labelled)
# T1 construct: Called full-length
# T1 sequence (looked up): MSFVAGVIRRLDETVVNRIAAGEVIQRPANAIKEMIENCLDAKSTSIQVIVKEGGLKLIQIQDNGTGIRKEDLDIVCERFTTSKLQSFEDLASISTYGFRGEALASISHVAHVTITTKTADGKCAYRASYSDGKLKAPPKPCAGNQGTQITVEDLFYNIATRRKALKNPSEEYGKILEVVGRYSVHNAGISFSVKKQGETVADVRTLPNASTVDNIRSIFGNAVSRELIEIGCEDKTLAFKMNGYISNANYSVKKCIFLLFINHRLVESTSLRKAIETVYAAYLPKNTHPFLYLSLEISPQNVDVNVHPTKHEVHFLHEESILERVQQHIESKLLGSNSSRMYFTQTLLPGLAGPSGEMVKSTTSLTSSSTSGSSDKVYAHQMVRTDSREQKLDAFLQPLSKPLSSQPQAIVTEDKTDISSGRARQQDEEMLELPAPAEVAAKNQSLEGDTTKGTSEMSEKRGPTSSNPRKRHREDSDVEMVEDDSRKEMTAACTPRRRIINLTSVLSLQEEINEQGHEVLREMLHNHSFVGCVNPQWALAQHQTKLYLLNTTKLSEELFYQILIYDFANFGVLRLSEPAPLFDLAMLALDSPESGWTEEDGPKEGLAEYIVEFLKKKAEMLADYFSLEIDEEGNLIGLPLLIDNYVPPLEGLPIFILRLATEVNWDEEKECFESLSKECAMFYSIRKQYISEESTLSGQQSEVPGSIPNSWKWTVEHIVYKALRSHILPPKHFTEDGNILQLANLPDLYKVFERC
# Molecular target: T1, full-length hMLH1 protein
# Test: co-immunoprecipitation of in vitro translated proteins with anti-hMLH1 mAb (FIG. 5B, lane 1); converse with N-terminal hPMS2 antibody (FIG. 5C, lane 2)
# Description: Immunoprecipitation, Immunoprecipitations were performed on in vitro translated proteins by mixing the translation reactions with 1 μg of the MLH1 specific monoclonal antibody (mAB) MLH14 (Oncogene Science, Inc.), a polyclonal antibody generated to codons 2-20 of hPMS2 described above, or a polyclonal antibody generated to codons 843-862 of hPMS2 (Santa Cruz Biotechnology, Inc.) in 400 µl of EBC buffer (50 mM Tris, pH 7.5, 0.1 M NaCl, 0.5% NP40). After incubation for 1 hr at 4° C., protein A sepharose (Sigma) was added to a final concentration of 10% and reactions were incubated at 4° C. for 1 hour. Proteins bound to protein A were washed five times in EBC and separated by electrophoresis on 4-20% Tris-glycine gels, which were then dried and autoradiographed.
# Previous studies have shown that these two proteins dimerize to form a functionally active complex (12, 28). Proteins were synthesized in vitro using reticulocyte lysates, employing RNA generated from cloned templates. The full-length hMLH1 and hPMS2 proteins bound to each other and were co-precipitated with antibodies to either protein, as expected (data not shown). […] When a ^35S-labelled, full length hMLH1 protein (FIG. 5A, lane 5) was mixed with the unlabelled carboxyl terminal hPMS2 polypeptide, a monoclonal antibody (mAb) to the carboxyl terminus of hPMS2 efficiently immunoprecipitated the labeled hMLH1 protein (lane 1). […]
binder,measurement,value
"hPMS-134 (containing codons 1-134 of hPMS2), in vitro translated (other, human, UniProt P54278 1-134, looked up, 35S-labelled methionine, The patient allele expressed in cells is said to give the N-terminal 133 amino acids) MERAESSSTEPAKAIKPIDRKSVHQICSGQVVLSLSTAVKELVENSLDAGATNIDLKLKDYGVDLIEVSDNGCGVEEENFEGLTLKHHTSKIQEFADLTQVETFGFRGEALSSLCALSDVTISTCHASAKVGTR",binding result,no binding
